Source: publication PMC3395618

Molecular target: HLA-Cw*0102 (human (endogenous in T2))

Molecule | HLA-Cw*0102 expression on peptide-pulsed T2 cells (antibody DT9, flow cytometry) as compared to non-peptide pulsed T2 cells [fold]
p24 Gag177-186 (from UniProt P04591 177-186) (peptide) | > 5
p24 Gag176-185 (from UniProt P04591 176-185) (peptide) | > 5
p24 Gag164-173 (from UniProt P04591 164-173) (peptide) | > 5
p24 Gag146-155 (from UniProt P04591 146-155) (peptide) | > 5
p24 Gag162-171 (from UniProt P04591 162-171) (peptide) | > 5
SDIAGTTSTL [p24 Gag234-243 (…)] | > 5
LKALGPAATL [p24 Gag334-343 (…)] | > 5
AAEWDRLHPV [p24 Gag209-218 (…)] | > 5
VIPMFSALSE [p24 Gag168-177 (…)] | > 5
